Numbering of substitutions follows the chain as printed.

We go through eight proteins from the PETadex activity labels (doi:10.1101/2025.08.30.673199).

The labels stand for the following.
B1: unnamed (protein)
chain: MKAPLFKLAAFTLGVSLSSVALATNPGGGGAGSNPDTGTGFPGVSSFSADGSFATTSGSAGLSCTVFRPSTLGANGLKHPIIVWGNGTTASPSTYSGILEHWASHGFVVIAANTSNAGTGQDMLNCVDYLTTQNNRSTGTYANKLDLNRIGAAGHSQGGGGTIMAGQDYRIKVTAPFQPYTIGLGHNSSSQSNQNGPMFLMTGSADTIASPTLNALPVYNRANVPVFWGELSGASHFEPMGSAGDFRGPSTAWFRYHLMDDASAEDTFYGSNCDLCTDNDWDVRRKGIN
B2: unnamed (protein)
chain: B1 chain with M240V
B3: unnamed (protein)
chain: B1 chain with F237I
B4: unnamed (protein)
chain: B1 chain with N187A, M240V
B5: unnamed (protein)
chain: B1 chain with T88Y, M240V
B6: unnamed (protein)
chain: B1 chain with Y180F, M240V
B7: unnamed (protein)
chain: B1 chain with S156A, M240V
B8: unnamed (protein)
chain: B1 chain with D206A, M240V

Substrate in the series: PET
As to the kind of experiment: Proxy for plastic degradation [Released monomer concentration (HPLC/LC-MS) (TPA+MHET+BHET)]. The conditions noted are these: pH 9.
In the case of B1, the “Proxy for plastic degradation” value was 870 µM. To B2 belongs 1020 µM; to B3, 600 µM. To B4 belongs 920 µM.

On to B5, for which the “Proxy for plastic degradation” value turned out to be 345 µM. To B6 belongs 375 µM.

In the case of B7, the “Proxy for plastic degradation” value is 10 µM. To B8 belongs 10 µM.
